Reference: patent publication US20060154859A1

Tests used:
[1] = target: long form of human leptin receptor (human) (UniProt P48357); experiment: cell-based or functional assay
[2] = target: recombinant chicken leptin binding domain (chLBD) (chicken); experiment: affinity for chLBD (method not given; compared with the SPR value of WT human leptin)
[3] = target: long form of human leptin receptor (human) (UniProt P48357); experiment: radioreceptor competition assay against iodinated leptin, homogenate of BAF/3 cells with long form of human leptin receptor, average of two experiments
Target sequence in this assay (P48357 22-1165 limits assumed, form in doubt): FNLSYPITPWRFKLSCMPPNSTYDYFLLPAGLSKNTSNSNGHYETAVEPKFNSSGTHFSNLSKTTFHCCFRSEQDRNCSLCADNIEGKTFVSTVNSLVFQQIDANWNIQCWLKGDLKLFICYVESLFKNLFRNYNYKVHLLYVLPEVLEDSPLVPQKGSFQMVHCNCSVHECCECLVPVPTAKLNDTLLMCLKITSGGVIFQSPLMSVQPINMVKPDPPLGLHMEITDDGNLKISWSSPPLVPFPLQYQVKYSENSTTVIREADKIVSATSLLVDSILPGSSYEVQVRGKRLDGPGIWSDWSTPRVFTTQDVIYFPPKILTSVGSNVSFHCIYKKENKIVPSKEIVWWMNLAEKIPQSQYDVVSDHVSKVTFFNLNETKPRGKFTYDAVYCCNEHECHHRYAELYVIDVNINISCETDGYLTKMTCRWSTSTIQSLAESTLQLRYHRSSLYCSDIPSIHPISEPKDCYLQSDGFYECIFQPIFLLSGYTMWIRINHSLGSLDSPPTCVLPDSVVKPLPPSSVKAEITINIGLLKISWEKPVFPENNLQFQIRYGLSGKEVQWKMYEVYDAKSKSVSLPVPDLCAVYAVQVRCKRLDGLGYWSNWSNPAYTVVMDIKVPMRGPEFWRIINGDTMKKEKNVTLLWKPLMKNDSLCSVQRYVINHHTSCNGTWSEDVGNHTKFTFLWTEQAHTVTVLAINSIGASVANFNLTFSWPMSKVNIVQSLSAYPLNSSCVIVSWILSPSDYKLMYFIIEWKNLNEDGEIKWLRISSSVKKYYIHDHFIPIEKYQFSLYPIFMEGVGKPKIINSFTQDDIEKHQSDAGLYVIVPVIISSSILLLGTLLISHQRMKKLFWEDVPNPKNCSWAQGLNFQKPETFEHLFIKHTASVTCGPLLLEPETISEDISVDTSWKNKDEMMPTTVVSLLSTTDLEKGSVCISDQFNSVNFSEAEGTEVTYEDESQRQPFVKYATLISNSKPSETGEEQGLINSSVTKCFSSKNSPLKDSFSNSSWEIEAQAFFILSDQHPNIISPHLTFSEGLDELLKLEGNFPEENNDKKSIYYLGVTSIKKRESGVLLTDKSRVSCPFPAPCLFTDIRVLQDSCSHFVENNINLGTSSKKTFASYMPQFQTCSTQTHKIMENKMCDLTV

[4] = target: recombinant chicken leptin binding domain (chLBD) (chicken); experiment: SPR (Biacore 3000), leptin amine-coupled to CM5 chip, soluble chLBD as analyte, 25 C, 1:1 Langmuir fit, mean of 2 experiments
[5] = target: long form of human leptin receptor (human) (UniProt P48357); experiment: radioreceptor assay, homogenate from 1.75x10^6 BAF/3 cells with human leptin receptor per tube
Target sequence in this assay (P48357 22-1165 limits assumed, form in doubt): as above

Substance	IC50 for inhibition in the Baf/3 bioassay [1] [nM]	Kd [2] [nM]	IC50 for inhibition in the Baf/3 bioassay, fold against L39A/D40A/F41A or L39A/D40A/F41A/I42A [1] [fold]	IC50 [3] [nM]	EC50 in Baf/3 bioassay (proliferation of BAF/3 cells transfected with the long form of human leptin receptor, MTT) [1] [nM]	Kd [4] [nM]	koff [4] [s⁻¹]	kon [4] [M⁻¹ s⁻¹]	specific binding [5] [%]
human leptin L39A/D40A/F41A/I42A/S120A/T121A mutant (from UniProt P41159 22-167) (ligand)	14.3	26.9	–	–	–	–	–	–	–
human leptin S120A/T121A mutant (from UniProt P41159 22-167) (ligand)	165	29.5	150	–	–	–	–	–	–
wild-type (WT) human leptin, recombinant (from UniProt P41159 22-167) (ligand)	–	–	–	5.33	0.022	28.8	0.0043	149000	6 to 7
wild-type (WT) ovine leptin, recombinant (from UniProt Q28603 1-146) (ligand)	–	–	–	1.47	0.037	22.8	0.0037	162000	–
